# T1: Klotho ectodomain (Mus musculus, UniProt O35082)
# T1 construct: The ectodomain of murine Klotho (A35 to K982) was purified from culture media; FLAG (C); made in house; host or cells: HEK293 (secreted into culture media)
# T1 sequence (O35082 35-982): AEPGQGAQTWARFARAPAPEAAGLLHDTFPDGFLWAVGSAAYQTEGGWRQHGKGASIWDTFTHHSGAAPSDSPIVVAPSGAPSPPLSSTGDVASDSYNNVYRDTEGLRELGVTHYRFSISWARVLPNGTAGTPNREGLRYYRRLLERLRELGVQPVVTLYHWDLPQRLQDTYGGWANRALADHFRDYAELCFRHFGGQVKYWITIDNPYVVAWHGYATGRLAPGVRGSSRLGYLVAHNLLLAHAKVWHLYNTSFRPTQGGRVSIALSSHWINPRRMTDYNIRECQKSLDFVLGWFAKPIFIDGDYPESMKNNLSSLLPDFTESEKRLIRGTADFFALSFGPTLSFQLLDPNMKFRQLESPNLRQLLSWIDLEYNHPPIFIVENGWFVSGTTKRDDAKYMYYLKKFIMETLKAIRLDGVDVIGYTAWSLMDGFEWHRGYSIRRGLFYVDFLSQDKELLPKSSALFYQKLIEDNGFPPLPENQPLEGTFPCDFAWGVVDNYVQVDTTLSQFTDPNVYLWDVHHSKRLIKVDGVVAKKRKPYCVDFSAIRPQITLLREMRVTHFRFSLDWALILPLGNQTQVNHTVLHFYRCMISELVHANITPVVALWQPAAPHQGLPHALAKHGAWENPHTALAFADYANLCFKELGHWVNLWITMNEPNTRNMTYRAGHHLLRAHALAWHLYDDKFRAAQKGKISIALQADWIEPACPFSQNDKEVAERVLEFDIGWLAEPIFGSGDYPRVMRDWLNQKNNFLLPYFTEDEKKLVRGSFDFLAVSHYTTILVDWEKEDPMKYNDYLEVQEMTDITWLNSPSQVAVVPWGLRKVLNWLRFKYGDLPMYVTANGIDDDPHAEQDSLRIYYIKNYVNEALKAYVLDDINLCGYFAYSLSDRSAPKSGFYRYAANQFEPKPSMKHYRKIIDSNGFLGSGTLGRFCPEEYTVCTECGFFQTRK
# Biological target: T1, Klotho ectodomain
# Experiment: SPR: Klotho ectodomain passed over immobilized FGF23
# Assay type: binding, murine
# Experimental: Surface plasmon resonance (SPR) spectroscopy experiments were performed on a Biacore 2000 instrument (Biacore AB), and FGF23-FGFR1c-Klotho interactions were studied at 25° C. in HBS-EP buffer (10 mM HEPES-NaOH, pH 7.4, 150 mM NaCl, 3 mM EDTA, 0.005% (v/v) polysorbate 20). Proteins were immobilized by amine coupling on flow channels of research grade CM5 chips (Biacore AB). Proteins were injected over a CM5 chip at a flow rate of 50 μl min^−1, and at the end of each protein injection (180 s), HBS-EP buffer (50 μl min^−1) was flowed over the chip to monitor dissociation for 180 s. The chip surface was then regenerated by injecting 50 μl of 2.0 M NaCl in 10 mM sodium acetate, pH 4.5. To control for nonspecific binding in experiments where Klotho ectodomain was immobilized on the chip, β-glucuronidase was coupled to the control flow channel of the chip (˜26-32 fmole/mm^2). […] The data were processed with BiaEvaluation software (Biacore AB). For each protein injection over a Klotho chip, the nonspecific responses from the β-glucuronidase control flow channel were subtracted from the responses recorded for the Klotho flow channel. Similarly, for each protein injection over a FGF chip, the nonspecific responses from the FHF1B control flow channel were subtracted from the responses recorded for the FGF flow channel. […]
molecule,measurement,value
"FGF23^28-251: human FGF23 (A28 to I251), bioactive full-length ligand expressed in E. coli (protein, listed as Homo sapiens) ASPLLGSSWGGLIHLYTATARNSYHLQIHKNGHVDGAPHQTIYSALMIRSEDAGFVVITGVMSRRYLCMDFRGNIFGSHYFDPENCRFQHQTLENGYDVYHSPQYHFLVSLGRAKRAFLPGMNPPPYSQFLSRRNEIPLIHFNTPIPRRHTRSAEDDSERDPLNVLKPRARMTPAPASCSQELPSAEDNSPMASDPLGVVRGGRVNTHAGGTGPEGCRPFAKFI",binding of Klotho ectodomain to immobilized FGF23,bound poorly
